Data: publication PMC8383114

Molecular target: C18 (a CaM binding peptide from CaMKIIα)
Experiment: FRET or BRET

Substance: WT-CaM of the BRET construct (Venus, CaM, target peptide, RLuc8) (from UniProt P0DP26 1-149) (natural protein)
- Kd from the Ca2+ titration curve of the BRET construct: 3.92 µM
